The text below walks through data of patent US20080267950A1 (BOARD OF TRUSTEES OF THE UNIVERSITY OF ARKANSAS, published 2008).

Test [1] concerns the target T1, LRP5 in C2C12 cell lysate (mouse, UniProt Q91VN0 31-1614).
T1 construct: also called LDL receptor-related protein 5
The test is described as follows: co-immunoprecipitation: BMPR immunoprecipitated from C2C12 lysate, blotted with anti-LRP5.

The target in test [2] is T2, LRP6 in C2C12 cell lysate (mouse, UniProt O88572 20-1613).
T2 construct: also called LDL receptor-related protein 6
T2 sequence (O88572 20-1613 limits assumed): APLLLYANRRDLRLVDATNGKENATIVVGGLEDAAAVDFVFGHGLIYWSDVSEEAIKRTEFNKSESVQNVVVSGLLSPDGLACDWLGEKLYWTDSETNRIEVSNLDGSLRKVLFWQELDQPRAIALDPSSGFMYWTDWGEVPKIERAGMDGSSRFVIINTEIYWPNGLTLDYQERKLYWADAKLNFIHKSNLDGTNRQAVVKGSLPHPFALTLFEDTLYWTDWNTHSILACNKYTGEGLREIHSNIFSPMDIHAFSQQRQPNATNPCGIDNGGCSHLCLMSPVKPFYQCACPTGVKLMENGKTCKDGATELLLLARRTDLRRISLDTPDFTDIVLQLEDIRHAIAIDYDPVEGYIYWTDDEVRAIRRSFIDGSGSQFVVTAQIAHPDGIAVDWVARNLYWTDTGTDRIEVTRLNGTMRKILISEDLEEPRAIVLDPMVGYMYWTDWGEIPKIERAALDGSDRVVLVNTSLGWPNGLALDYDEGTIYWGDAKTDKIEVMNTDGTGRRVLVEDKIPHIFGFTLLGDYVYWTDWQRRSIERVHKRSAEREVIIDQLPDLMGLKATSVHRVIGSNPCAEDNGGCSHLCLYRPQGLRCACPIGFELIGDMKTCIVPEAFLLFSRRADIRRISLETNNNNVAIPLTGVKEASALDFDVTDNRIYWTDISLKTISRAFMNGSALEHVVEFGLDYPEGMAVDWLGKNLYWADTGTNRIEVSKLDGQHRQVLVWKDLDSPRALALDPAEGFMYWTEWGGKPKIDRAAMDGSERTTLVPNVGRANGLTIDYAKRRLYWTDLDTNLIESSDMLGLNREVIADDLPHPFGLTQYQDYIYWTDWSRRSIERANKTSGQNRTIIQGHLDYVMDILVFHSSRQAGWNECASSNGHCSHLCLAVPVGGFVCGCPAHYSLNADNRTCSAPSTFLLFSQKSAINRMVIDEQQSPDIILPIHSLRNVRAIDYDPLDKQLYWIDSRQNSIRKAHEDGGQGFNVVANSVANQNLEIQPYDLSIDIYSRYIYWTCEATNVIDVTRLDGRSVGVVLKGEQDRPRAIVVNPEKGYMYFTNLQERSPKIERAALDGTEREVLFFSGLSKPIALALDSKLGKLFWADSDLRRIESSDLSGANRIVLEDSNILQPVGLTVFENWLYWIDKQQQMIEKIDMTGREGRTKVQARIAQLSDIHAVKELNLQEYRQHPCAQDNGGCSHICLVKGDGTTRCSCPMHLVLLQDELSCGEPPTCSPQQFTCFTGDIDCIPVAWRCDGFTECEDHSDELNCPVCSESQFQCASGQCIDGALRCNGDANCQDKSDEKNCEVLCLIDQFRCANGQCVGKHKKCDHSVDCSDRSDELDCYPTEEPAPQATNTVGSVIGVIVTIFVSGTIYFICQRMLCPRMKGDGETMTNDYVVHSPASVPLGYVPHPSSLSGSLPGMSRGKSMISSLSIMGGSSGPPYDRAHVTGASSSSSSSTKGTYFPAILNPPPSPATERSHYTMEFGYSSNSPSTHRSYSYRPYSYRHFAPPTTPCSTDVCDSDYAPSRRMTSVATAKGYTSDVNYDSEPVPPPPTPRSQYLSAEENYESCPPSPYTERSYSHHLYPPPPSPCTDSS
The test is described as follows: co-immunoprecipitation: BMPR immunoprecipitated from C2C12 lysate, blotted with anti-LRP6.

T1 sequence (Q91VN0 31-1614 limits assumed): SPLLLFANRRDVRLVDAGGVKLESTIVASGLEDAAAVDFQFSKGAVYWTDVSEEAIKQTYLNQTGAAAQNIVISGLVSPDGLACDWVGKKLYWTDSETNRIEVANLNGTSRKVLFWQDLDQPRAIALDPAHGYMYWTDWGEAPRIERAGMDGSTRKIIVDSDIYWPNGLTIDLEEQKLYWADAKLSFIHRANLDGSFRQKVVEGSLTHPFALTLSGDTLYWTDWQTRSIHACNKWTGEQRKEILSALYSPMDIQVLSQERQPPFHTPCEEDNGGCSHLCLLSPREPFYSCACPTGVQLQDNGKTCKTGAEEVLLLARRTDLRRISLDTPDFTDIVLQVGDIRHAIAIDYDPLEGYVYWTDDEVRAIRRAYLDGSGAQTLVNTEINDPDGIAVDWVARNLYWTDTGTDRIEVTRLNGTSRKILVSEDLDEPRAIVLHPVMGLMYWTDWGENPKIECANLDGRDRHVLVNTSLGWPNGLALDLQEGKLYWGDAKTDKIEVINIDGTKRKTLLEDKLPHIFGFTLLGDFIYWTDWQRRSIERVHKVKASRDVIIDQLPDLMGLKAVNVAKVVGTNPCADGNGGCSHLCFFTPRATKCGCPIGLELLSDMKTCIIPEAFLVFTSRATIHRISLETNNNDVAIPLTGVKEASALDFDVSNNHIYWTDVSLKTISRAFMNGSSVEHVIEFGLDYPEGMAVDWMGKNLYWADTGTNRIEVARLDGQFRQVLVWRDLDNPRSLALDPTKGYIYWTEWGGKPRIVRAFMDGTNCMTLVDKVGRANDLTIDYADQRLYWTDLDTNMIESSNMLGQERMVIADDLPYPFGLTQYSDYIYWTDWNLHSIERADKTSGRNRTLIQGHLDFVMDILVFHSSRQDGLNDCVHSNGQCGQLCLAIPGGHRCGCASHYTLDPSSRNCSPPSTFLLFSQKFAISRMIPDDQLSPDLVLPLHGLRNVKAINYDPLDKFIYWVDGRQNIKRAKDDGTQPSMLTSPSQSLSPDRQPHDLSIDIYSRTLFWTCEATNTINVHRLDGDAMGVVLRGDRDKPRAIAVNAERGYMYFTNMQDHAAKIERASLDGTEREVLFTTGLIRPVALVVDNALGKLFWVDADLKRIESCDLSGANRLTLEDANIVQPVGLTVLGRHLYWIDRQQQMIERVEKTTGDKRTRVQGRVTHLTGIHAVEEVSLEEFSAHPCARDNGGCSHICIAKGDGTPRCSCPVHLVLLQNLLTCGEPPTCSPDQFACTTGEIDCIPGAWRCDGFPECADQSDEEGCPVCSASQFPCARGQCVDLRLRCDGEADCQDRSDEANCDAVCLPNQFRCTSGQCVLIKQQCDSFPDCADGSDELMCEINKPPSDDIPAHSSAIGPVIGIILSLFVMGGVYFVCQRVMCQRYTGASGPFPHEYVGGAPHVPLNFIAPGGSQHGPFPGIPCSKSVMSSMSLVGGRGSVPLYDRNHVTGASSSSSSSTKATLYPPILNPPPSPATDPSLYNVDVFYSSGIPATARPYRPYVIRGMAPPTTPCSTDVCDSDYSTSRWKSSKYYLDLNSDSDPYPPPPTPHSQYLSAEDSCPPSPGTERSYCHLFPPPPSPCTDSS

B1: BMPR-II in C2C12 cell lysate (receptor, mouse, UniProt O35607 27-1038, looked up)
chain: SQNQERLCAFKDPYQQDLGIGESRISHENGTILCSKGSTCYGLWEKSKGDINLVKQGCWSHIGDPQECHYEECVVTTTPPSIQNGTYRFCCCSTDLCNVNFTENFPPPDTTPLSPPHSFNRDETIIIALASVSVLAVLIVALCFGYRMLTGDRKQGLHSMNMMEAAAAEPSLDLDNLKLLELIGRGRYGAVYKGSLDERPVAVKVFSFANRQNFINEKNIYRVPLMEHDNIARFIVGDERLTADGRMEYLLVMEYYPNGSLCKYLSLHTSDWVSSCRLAHSVTRGLAYLHTELPRGDHYKPAISHRDLNSRNVLVKNDGACVISDFGLSMRLTGNRLVRPGEEDNAAISEVGTIRYMAPEVLEGAVNLRDCESALKQVDMYALGLIYWEVFMRCTDLFPGESVPDYQMAFQTEVGNHPTFEDMQVLVSREKQRPKFPEAWKENSLAVRSLKETIEDCWDQDAEARLTAQCAEERMAELMMIWERNKSVSPTVNPMSTAMQNERNLSHNRRVPKIGPYPDYSSSSYIEDSIHHTDSIVKNISSEHSMSSTPLTIGEKNRNSINYERQQAQARIPSPETSVTSLSTNTTTTNTTGLTPSTGMTTISEMPYPDETHLHATNVAQSIGPTPVCLQLTEEDLETNKLDPKEVDKNLKESSDENLMEHSLKQFSGPDPLSSTSSSLLYPLIKLAVEVTGQQDFTQAANGQACLIPDVPPAQIYPLPKQQNLPKRPTSLPLNTKNSTKEPRLKFGNKHKSNLKQVETGVAKMNTINAAEPHVVTVTMNGVAGRSHNVNSHAATTQYANGAVPAGQAANIVAHRSQEMLQNQFIGEDTRLNINSSPDEHEPLLRREQQAGHDEGVLDRLVDRRERPLEGGRTNSNNNNSNPCSEQDILTQGVTSTAADPGPSKPRRAQRPNSLDLSATNILDGSSIQIGESTQDGKSGSGEKIKRRVKTPYSLKRWRPSTWVISTEPLDCEVNNNGSDRAVHSKSSTAVYLAEGGTATTTVSKDIGMNCL
notes: also called BMP-2 receptor
As to B1, the binding result in test [1] and in test [2] was “no binding” in each case.
